Results reported in patent US20190161786A1.

Target: wild-type Savinase (Bacillus lentus protease of SEQ ID NO: 3) (Bacillus lentus) (UniProt P41362)
Experiment: cell-based or functional assay

UniProt P41362, sequence (P41362 28-380, tags left off): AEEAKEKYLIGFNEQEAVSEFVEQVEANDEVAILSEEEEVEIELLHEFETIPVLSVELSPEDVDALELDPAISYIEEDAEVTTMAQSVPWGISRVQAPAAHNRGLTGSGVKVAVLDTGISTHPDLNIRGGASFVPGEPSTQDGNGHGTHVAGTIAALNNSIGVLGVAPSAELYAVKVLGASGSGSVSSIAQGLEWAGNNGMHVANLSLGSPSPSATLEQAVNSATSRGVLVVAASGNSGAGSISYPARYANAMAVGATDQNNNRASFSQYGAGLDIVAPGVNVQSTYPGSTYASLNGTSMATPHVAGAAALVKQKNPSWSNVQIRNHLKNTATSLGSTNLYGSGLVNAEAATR

“ovoinhibitor isolated from hen egg white (from UniProt P10184 69-517)” showed an amount of released amplicon A (qPCR of DNA released from alpha-casein-coated microspheres by the expressed protease), compared to the amount released in the absence of ovoinhibitor of 68%.
